Results from patent US11020455B2, “Colony stimulating factor for use in pancreatic or colon cancer treatment” (ENDOR TECHNOLOGIES, S.L., priority 2015, dated 2021).

Key:
sarcoma = details: monotherapy; cited from earlier work
melanoma = details: subcutaneous long-term therapy after surgical resection; cited from earlier work
prostate cancer = details: patients with prostate cancer; cited from earlier work
Colon-26 SC tumors [1] = assay: Antitumoral efficacy in Colon-26 SC tumor model (Balb/C mice); type: in vivo, mouse; details: Colon-26, 10 μg/Kg SC daily, 18 days of treatment
Description: It is depicted the antitumoral efficacy of G-CSF in mouse colorectal SC tumors. BalbC mice bearing colorectal SC tumors were daily treated with subcutaneous G-CSF injection at a dose of 10 μg/kg. Total tumor volume (mm^3±SE) in saline (solid lines) and G-CSF10 μg/kg (dashed lines) groups, for 18 days of treatment are represented.
Depiction of the antitumoral efficacy of G-CSF in colorectal SC tumors. BalbC mice bearing Colon-26 SC tumors, with and without Sephadex papula, were treated daily with subcutaneous G-CSF injection at a dose of 50 ug/kg. […]
(§1) Mouse Models and Tumor Growth Studies Animal procedures met the guidelines of European Community Directive 86/609/EEC and were approved by the Local Ethical Committee. […] All animals were weighed and tumors were measured using manual caliper three times per week. SC tumor volumes were calculated according to the formula described by Attia and Weiss (Attia M A, et. al. “Immunology of spontaneous mammary carcinomas in mice. V. Acquired tumor resistance and enhancement in strain A mice infected with mammary tumor virus” Cancer Res. 1966, vol. 26, pp, 1787-1800), V (mm^3)=0.4×(larger diameter×smaller diameter^2). […]
Antitumoral experiments were carried out on immunocompetent Balb/C tumor-bearing mice treated with Sephadex. […] There were 4 animals per group and their survival was monitored daily (FIG. 6). […]

[2] = system: peripheral blood granulocytes; assay: Peripheral blood granulocyte levels after single subcutaneous G-CSF injection in healthy C57BJL6 mice; type: in vivo, mouse
Description: (§2) Depiction of the peripheral blood granulocytes levels in healthy C57BJL6 and Athymic nu/nu mice after the subcutaneous injection of a single dose of G-CSF (10 μg/kg) in C57BJL6, and 10, 25, 50 and 100 μg/kg of G-CSF in Athymic nu/nu mice. Blood samples were taken at different time points and peripheral blood granulocytes levels are represented as a total number of granulocytes (GRA×10^9/L).
(§3) As peripheral blood is the only tissue routinely available from mice, the peripheral blood hemogram was also assessed in order to provide information about the behavior of blood cell populations after the subcutaneous injection of different G-CSF doses (Filgrastim—Amgen). […] Inventors especially focused their attention on the distribution of granulocytes in the peripheral blood which was determined at 1, 5 or 2, 6, 10 and 24 hrs after an initial dose of G-CSF subcutaneously. Peripheral blood granulocytes levels were analyzed in healthy (FIG. 7), and tumor-bearing mice (FIG. 8). […]

Panc-1 SC tumors = assay: Antitumoral efficacy in Panc-1 SC tumor model (athymic nu/nu mice); type: in vivo, mouse; details: Panc-1, 10 μg/Kg SC daily, 48 days of treatment
Description: (§4) It is depicted the antitumoral efficacy of G-CSF in human pancreatic SC tumors. Athymic nu/nu mice bearing Panc-1 SC tumors were daily treated with subcutaneous G-CSF injection at a dose of 10 μg/Kg, while GE was injected intraperitoneal at a dose of 80 mg/Kg two times per week during the whole experiment. Total tumor volume (mm^3±SE) in saline (solid lines), G-CSF 10 μg/Kg (dashed lines) and GE 80 mg/kg (dotted) groups, for 48 days of treatment are represented.
(§5) Human pancreatic adenocarcinoma cell lines, Panc-1 and MiaPaca cells and the mouse pancreatic adenocarcinoma cells Panc02, were used for pancreatic cancer efficacy studies. Murine colorectal carcinoma cell line, Colon-26 cells, was used for colon cancer efficacy studies. […]
as §1

Colon-26 SC tumors [3] = assay: Effect of Sephadex on G-CSF antitumoral efficacy in Colon-26 model; type: in vivo, mouse; details: Colon-26 and Sephadex, 50 μg/Kg SC daily, 19 days
Description: Depiction of the antitumoral efficacy of G-CSF in colorectal SC tumors. BalbC mice bearing Colon-26 SC tumors, with and without Sephadex papula, were treated daily with subcutaneous G-CSF injection at a dose of 50 ug/kg. Total tumor volume (mm^3±SE) of saline (circle), G-CSF 50 μg/kg (square, abbreviated IT50), Sephadex-Saline (triangle), and Sephadex+G-CSF 50 μg/kg (cross, abbreviated IT-Sephadex.), for 19 days of treatment are represented.
Antitumoral experiments were carried out on immunocompetent Balb/C tumor-bearing mice treated with Sephadex. Sephadex treatments were initiated when SC Colon-26 tumors reached a tumor volume ranging from 90 to 110 mm^3 and 0.5 mL of Sephadex 16% (Sephadex G-150, Pharmacia Fine Chemicals, Sweden) was subcutaneously injected in the left side flank of mice. Control animals included were Saline and Sephadex groups. In this experiment, G-CSF group was treated at a dose of 50 μg/Kg (Filgrastim—Amgen). There were 4 animals per group and their survival was monitored daily (FIG. 6). In this model, Sephadex distracts functional granulocytes from the blood into the Sephadex papula thus abolishing G-CSF antitumoral activity. […]

[4] = system: tumor-infiltrating granulocytes; assay: Tumor granulocytes (CD45+CD11b+Ly6G+) by flow cytometry in Colon-26 tumors; type: in vivo, mouse; details: 10 μg/Kg SC, day 5, flow cytometry
Description: Depiction of the tumor granulocyte levels, defined as a CD45+CD11b+Ly6G+ triple positive population, analyzed by flow cytometry from Colon-26 tumors treated with 10 μg/kg of G-CSF during 5 days. Granulocytes cells from tumor are represented as a % of positive cells±SE.
To evaluate the antitumoral capacity of G-CSF in murine colorectal carcinoma, immunocompetent Balb/C mice bearing Colon-26 tumors were treated when SC tumors reached a tumor volume ranging from 90 to 110 mm^3. For G-CSF therapy, Balb/C mice were randomly divided in Saline and G-CSF groups. G-CSF treatment (Filgrastim—Amgen) was applied subcutaneously every day during the whole experiment (FIG. 4). At day 5 of the experiments, 4 animals of each treatment were sacrificed and tumors were collected. Granulocytes (GRA) cells were detected by FACS, analyzing the markers of these cells: CD45+CD11b+Ly6G (FIG. 5). Details about each treatment are described in the present table: […]

MiaPaca SC tumors = assay: Antitumoral efficacy in MiaPaca SC tumor model (athymic nu/nu mice); type: in vivo, mouse; details: 10 μg/Kg SC daily, 37 days after treatment
Description: as §4, with “MiaPaca” for “Panc-1”, “μg/kg,” for “μg/Kg,”, “μg/kg” for “μg/Kg”, “37” for “48”
as §5, §1

[5] = system: peripheral blood granulocytes; assay: Peripheral blood granulocyte levels in athymic nu/nu mice bearing MiaPaca SC tumors; type: in vivo, mouse; details: MiaPaca tumor-bearing nu/nu mice, first SC injection at 10, 25, 50 and 100 μg/kg, blood at 1.5 hr
Description: Depiction of peripheral blood granulocytes levels in Athymic nu/nu mice bearing MiaPaca SC tumors after the subcutaneous injection of G-CSF 10, 25, 50 and 100 μg/kg. Blood samples were taken at 1.5 hr and peripheral blood granulocytes levels are represented as a total number of granulocytes (GRA 10^9/L).
As peripheral blood is the only tissue routinely available from mice, the peripheral blood hemogram was also assessed in order to provide information about the behavior of blood cell populations after the subcutaneous injection of different G-CSF doses (Filgrastim—Amgen). The peripheral blood collected from the right femoral artery with a heparinized syringe in vacutainer blood collection tubes containing EDTA (Sarstedt Microvette® CB 300) were immediately subjected to differential blood cell counts (red blood cells (RBCs), white blood cells (WBCs), and blood platelets (PLTs)) and measurement of blood hemoglobin concentration using a blood cell differential automatic analyzer (ABACUS JUNIOR VET). The data for each experimental group were obtained from three to five mice. Inventors especially focused their attention on the distribution of granulocytes in the peripheral blood which was determined at 1, 5 or 2, 6, 10 and 24 hrs after an initial dose of G-CSF subcutaneously. Peripheral blood granulocytes levels were analyzed in healthy (FIG. 7), and tumor-bearing mice (FIG. 8). […]

Panc02 SC tumors = assay: Antitumoral efficacy in Panc02 SC tumor model (C57BJL6 mice); type: in vivo, mouse; details: Panc02, 100 μg/Kg SC daily, 20 days of treatment
Description: It is depicted the antitumoral efficacy of G-CSF in murine pancreatic SC tumors. C57BJL6 mice bearing Panc02 SC tumors were daily treated with subcutaneous G-CSF injection at a dose of 100 μg/kg. […]
as §5, §1

[6] = system: neutrophils in peripheral blood; assay: Peripheral blood neutrophil levels in Colon-26 mice with Sephadex; type: in vivo, mouse; details: Sephadex-treated Colon-26 mice
Description: Antitumoral experiments were carried out on immunocompetent Balb/C tumor-bearing mice treated with Sephadex. Sephadex treatments were initiated when SC Colon-26 tumors reached a tumor volume ranging from 90 to 110 mm^3 and 0.5 mL of Sephadex 16% (Sephadex G-150, Pharmacia Fine Chemicals, Sweden) was subcutaneously injected in the left side flank of mice. Control animals included were Saline and Sephadex groups. In this experiment, G-CSF group was treated at a dose of 50 μg/Kg (Filgrastim—Amgen). There were 4 animals per group and their survival was monitored daily (FIG. 6). In this model, Sephadex distracts functional granulocytes from the blood into the Sephadex papula thus abolishing G-CSF antitumoral activity.
as §3

[7] = system: peripheral blood granulocytes; assay: Peripheral blood granulocyte levels after single subcutaneous G-CSF injection in healthy athymic nu/nu mice; type: in vivo, mouse
Description: as §2
As peripheral blood is the only tissue routinely available from mice, the peripheral blood hemogram was also assessed in order to provide information about the behavior of blood cell populations after the subcutaneous injection of different G-CSF doses (Filgrastim—Amgen). The peripheral blood collected from the right femoral artery with a heparinized syringe in vacutainer blood collection tubes containing EDTA (Sarstedt Microvette® CB 300) were immediately subjected to differential blood cell counts (red blood cells (RBCs), white blood cells (WBCs), and blood platelets (PLTs)) and measurement of blood hemoglobin concentration using a blood cell differential automatic analyzer (ABACUS JUNIOR VET). The data for each experimental group were obtained from three to five mice. Inventors especially focused their attention on the distribution of granulocytes in the peripheral blood which was determined at 1, 5 or 2, 6, 10 and 24 hrs after an initial dose of G-CSF subcutaneously. Peripheral blood granulocytes levels were analyzed in healthy (FIG. 7), and tumor-bearing mice (FIG. 8). C57BJL6 healthy mice were injected with G-CSF 10 μg/kg and healthy athymic nu/nu mice were injected with different doses of G-CSF: 0, 10, 25, 50 and 100 μg/kg (FIG. 7). Athymic nu/nu mice bearing subcutaneous MiaPaca tumor were injected with G-CSF 10, 25, 50 and 100 μg/kg and blood was extracted at 1.5 hr (FIG. 8).

| Molecule | therapeutic benefit in sarcoma (sarcoma) | therapeutic effect in melanoma patients (melanoma) | therapeutic benefit in prostate cancer patients (prostate cancer) | tumor inhibition (Colon-26 SC tumors [1]) | increase of granulocyte levels compared to untreated animals ([2]; single SC dose 10 μg/Kg) | time of maximum peripheral blood granulocyte levels post-G-CSF injection ([2]; single SC injection) | tumor inhibition compared to saline (Panc-1 SC tumors) | tumor inhibition (Colon-26 SC tumors [3]) | tumor-infiltrating granulocytes (CD45+CD11b+Ly6G+ triple positive population) [4] | tumor inhibition compared to saline (MiaPaca SC tumors) | peripheral blood granulocyte levels [5] | tumor inhibition compared to saline (Panc02 SC tumors) | neutrophils levels in peripheral blood after G-CSF injection [6] | increase of granulocyte levels compared to untreated animals ([7]; single SC dose 10 μg/Kg) | increase of granulocyte levels compared to untreated animals ([7]; single SC dose 25 μg/Kg) | increase of granulocyte levels compared to untreated animals ([7]; single SC dose 50 μg/Kg) | increase of granulocyte levels compared to untreated animals ([7]; single SC dose 100 μg/Kg) | time of maximum peripheral blood granulocyte levels post-G-CSF injection ([7]; single SC injection) |
| --- | --- | --- | --- | --- | --- | --- | --- | --- | --- | --- | --- | --- | --- | --- | --- | --- | --- | --- |
| GM-CSF: Granulocyte Macrophage Colony Stimulating Factor, recombinant protein; only literature results cited | did not reveal a therapeutic benefit | therapeutic effect | therapeutic benefit |  |  |  |  |  |  |  |  |  |  |  |  |  |  |  |
| G-CSF: Granulocyte Colony Stimulating Factor, recombinant protein; Filgrastim (Amgen) used in the experiments (protein, UniProt P09919 31-207, looked up, N-terminal methionine (filgrastim), Granulocyte Colony Stimulating Factor, recombinant protein; Filgrastim (Amgen) used in the experiments) Granulocyte …: TPLGPASSLPQSFLLKCLEQVRKIQGDGAALQEKLVSECATYKLCHPEELVLLGHSLGIPWAPLSSCPSQALQLAGCLSQLHSGLFLYQGLLQALEGISPELGPTLDTLQLDVADFATTIWQQMEELGMAPALQPTQGAMPAFASAFQRRAGGVLVASHLQSFLEVSYRVLRHLAQP |  |  |  | up to 60% | 2.5 fold | 6 h | up to 90% | 50% | significant increase | up to 55% | increase in a dose response manner | around 50% | smoothly recovered | 2.5 fold | 3.5 fold | 3.7 fold | 3.5 fold | 6 h |
